Here are results for one compound from patent US20200030452A1, “Process for the Manufacture of a Tumor-Vasculature Targeting Antitumor Agent” (priority 2016, published 2020).

Common to all, as to assay type: in vivo
The test system of series [1] is human colon HCT116 tumors. Description: IF7-SN38 injected intravenously into nude mice carrying human colon HCT116 tumors. Conditions: intravenous, low dosages.
The subject of a further series is tumors. Description: Treatment of mice with tumors using IF7-SN38. From the text:
(§1) Therefore, using our targeted therapy, a small amount of IF7-SN38 is required to be injected to patients. The efficiency of IF7-SN38 is unprecedented in mice, in particular for the brain malignancies. […] It is believed that IF7-SN38 would work far better than PEGylated SN38 by targeting malignant tumors including brain malignancy. The low dosage, specificity, and easily degrading nature of IF7-SN38 in targeted cells to release SN38, are the major factors for the superiority of our drug to PEG-SN38.

Series [2] is described as follows: Crossing of the blood brain barrier. The following applies: by passive transcytosis mechanism.
Excerpt: as §1

Structures are written as SMILES. Residues, ends and D or L forms follow the SMILES beside them. *: point of attachment. X1 = CCc1c2c(nc3ccc(OC(=O)[C@H]4CC[C@H](CNC(=O)[C@H]5CC[C@H](CN6C(=O)CC(*)C6=O)CC5)CC4)cc13)-c1cc3c(c(=O)n1C2)COC(=O)[C@]3(O)CC

Turning to `CCc1c2c(nc3ccc(OC(=O)[C@H]4CC[C@H](CNC(=O)[C@H]5CC[C@H](CN6C(=O)CC(SC[C@H](NC(=O)[C@H](CCCNC(=N)N)NC(=O)[C@H](CCC(N)=O)NC(=O)[C@H](Cc7c[nH]c8ccccc78)NC(=O)[C@H](CC(C)C)NC(=O)[C@H](CC(C)C)NC(=O)[C@H](Cc7ccccc7)NC(=O)[C@@H](N)[C@@H](C)CC)C(=O)N[C@@H](CCCNC(=N)N)C(=O)N[C@@H](CCCNC(=N)N)C(=O)O)C6=O)CC5)CC4)cc13)-c1cc3c(c(=O)n1C2)COC(=O)[C@]3(O)CC` (stereo partly drawn) [IF7-SN38] (H-IFLLWQRC(X1)RR-OH; N-terminus and C-terminus assumed), in series [1], the side effects entry is on record as “no apparent side effects”. The “side effects in the treated mice” value in the series with tumors is “without producing any side effects”. For the same compound, the blood brain barrier result in series [2] is recorded as “overcomes blood brain barrier”.
